For experiment [1], the target named is HSPB5ACD (α-crystallin domain of HSPB5) (human). In words: native MS.
In experiment [2] the target is HSPB1ACD (α-crystallin domain of HSPB1) (human). Put plainly: native MS.

One may read the Kd as the free concentration of one partner at which half of the binding sites on the other are occupied at equilibrium, for simple one-to-one binding. Low values mean tighter binding, high ones weaker binding.

Consider “HSPB5 C-terminal peptide (cognate peptide of HSPB5ACD)”, for which, in experiment [1], the Kd is < 100 µM.
As for “HSPB1 C-terminal peptide (cognate peptide of HSPB1ACD)”, the dissociation constant Kd in experiment [2] is < 100 µM.

The values are drawn from doi:10.1101/2024.01.05.574393.
